Data as given in publication PMC2712671.

Biological target: His6-tagged MogR_(1-162) (Listeria monocytogenes) (UniProt P0DJO8)
Experiment: crystal structure

Question: For “His6-tagged MogR_(1-162) (from UniProt P0DJO8 1-162) (domain or fragment)”, which stoichiometry N is on record?
Answer: 2
